In patent US10428140B2, “Anti-EphA4 antibody” (EISAI R&D MANAGEMENT CO., LTD., priority 2015, dated 2019):

T1: human EphA3 (Homo sapiens, UniProt P29320)
T1 construct: a protein of the extracellular region of each human Eph receptor fused with the SEAP protein and the His tag; made in house; host or cells: Expi293F cells (culture supernatant)
T1 sequence (P29320 21-541 limits assumed): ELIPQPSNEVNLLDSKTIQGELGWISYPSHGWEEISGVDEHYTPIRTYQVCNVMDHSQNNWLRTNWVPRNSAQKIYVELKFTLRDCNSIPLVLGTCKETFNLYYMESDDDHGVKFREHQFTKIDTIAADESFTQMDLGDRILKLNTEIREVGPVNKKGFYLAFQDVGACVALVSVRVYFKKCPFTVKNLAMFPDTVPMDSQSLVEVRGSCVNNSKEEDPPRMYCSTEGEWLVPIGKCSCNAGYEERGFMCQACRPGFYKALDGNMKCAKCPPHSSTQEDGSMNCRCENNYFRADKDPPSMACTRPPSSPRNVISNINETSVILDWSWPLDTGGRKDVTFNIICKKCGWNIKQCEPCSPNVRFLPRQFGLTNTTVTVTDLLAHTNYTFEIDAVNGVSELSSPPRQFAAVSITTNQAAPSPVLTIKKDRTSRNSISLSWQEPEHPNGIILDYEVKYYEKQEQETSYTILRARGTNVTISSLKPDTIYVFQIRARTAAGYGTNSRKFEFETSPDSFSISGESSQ

T2: human EphB3 (Homo sapiens, UniProt P54753)
T2 construct: a protein of the extracellular region of each human Eph receptor fused with the SEAP protein and the His tag; made in house; host or cells: Expi293F cells
T2 sequence (P54753 34-559 limits assumed): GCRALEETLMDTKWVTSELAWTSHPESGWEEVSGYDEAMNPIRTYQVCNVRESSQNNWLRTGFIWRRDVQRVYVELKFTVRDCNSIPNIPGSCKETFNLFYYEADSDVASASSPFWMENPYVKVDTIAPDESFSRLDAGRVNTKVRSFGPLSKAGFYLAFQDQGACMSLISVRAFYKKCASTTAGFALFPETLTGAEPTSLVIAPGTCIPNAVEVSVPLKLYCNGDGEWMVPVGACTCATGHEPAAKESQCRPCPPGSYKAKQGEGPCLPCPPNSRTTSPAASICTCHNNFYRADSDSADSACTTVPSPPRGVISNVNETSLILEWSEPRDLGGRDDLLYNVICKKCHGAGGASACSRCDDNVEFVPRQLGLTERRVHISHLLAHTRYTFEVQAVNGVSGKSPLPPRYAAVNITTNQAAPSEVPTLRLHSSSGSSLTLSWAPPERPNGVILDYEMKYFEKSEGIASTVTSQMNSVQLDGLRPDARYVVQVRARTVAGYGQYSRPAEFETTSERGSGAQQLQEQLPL

T3: human EphA8 (Homo sapiens, UniProt P29322)
T3 construct: a protein of the extracellular region of each human Eph receptor fused with the SEAP protein and the His tag; made in house; host or cells: Expi293F cells (culture supernatant)
T3 sequence (P29322 28-542 limits assumed): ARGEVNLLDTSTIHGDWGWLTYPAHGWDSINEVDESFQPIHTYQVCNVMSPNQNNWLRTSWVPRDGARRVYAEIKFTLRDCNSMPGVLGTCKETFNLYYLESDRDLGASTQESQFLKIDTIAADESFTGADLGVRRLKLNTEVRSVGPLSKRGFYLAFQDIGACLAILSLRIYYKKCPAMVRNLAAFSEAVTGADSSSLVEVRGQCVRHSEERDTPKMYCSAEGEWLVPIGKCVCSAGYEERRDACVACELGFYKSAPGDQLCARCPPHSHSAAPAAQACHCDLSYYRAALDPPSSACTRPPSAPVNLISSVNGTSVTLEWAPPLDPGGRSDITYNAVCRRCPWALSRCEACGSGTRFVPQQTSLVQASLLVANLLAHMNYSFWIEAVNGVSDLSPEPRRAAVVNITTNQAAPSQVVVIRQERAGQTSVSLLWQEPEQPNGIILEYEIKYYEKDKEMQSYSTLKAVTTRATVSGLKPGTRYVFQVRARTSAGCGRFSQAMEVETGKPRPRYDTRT


Experiments:
Assay in all cases: Selectivity ELISA of humanized antibodies for human Eph receptor
Assay type in all cases: binding
Details in all cases: coated protein 1 nM
[1] = target: T1, human EphA3
In short: (§1)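 His-tagged SEAP fusions of each human Eph receptor extracellular region, from Expi293F supernatants, were captured at 1 nM on anti-His-coated wells. Humanized antibody was bound 1 h at room temperature, then detected with HRP […] IgG. TMB development was acid-stopped and read at 450 nm.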

[2] = target: SEAP-His (Homo sapiens, UniProt P05187)
SEAP-His, sequence (P05187 23-511 limits assumed): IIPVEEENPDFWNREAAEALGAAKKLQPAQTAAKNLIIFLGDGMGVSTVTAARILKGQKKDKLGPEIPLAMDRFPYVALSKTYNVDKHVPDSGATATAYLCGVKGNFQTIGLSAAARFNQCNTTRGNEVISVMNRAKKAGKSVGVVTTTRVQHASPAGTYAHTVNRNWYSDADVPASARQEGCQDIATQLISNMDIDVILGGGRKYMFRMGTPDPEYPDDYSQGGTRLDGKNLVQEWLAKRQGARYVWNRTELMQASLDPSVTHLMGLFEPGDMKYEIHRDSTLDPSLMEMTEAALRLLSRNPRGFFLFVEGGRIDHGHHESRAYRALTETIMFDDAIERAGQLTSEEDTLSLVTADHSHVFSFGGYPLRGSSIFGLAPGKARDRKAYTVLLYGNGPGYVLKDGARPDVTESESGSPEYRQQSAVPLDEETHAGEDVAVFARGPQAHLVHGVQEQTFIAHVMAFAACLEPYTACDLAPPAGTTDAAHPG
In short: as §1

[3] = target: T2, human EphB3
In short: as §1

[4] = target: T3, human EphA8
In short: as §1

[5] = target: T4, human EphA2 (Homo sapiens, UniProt P29317)
T4 construct: a protein of the extracellular region of each human Eph receptor fused with the SEAP protein and the His tag; made in house; host or cells: Expi293F cells (culture supernatant)
T4 sequence (P29317 24-537 limits assumed): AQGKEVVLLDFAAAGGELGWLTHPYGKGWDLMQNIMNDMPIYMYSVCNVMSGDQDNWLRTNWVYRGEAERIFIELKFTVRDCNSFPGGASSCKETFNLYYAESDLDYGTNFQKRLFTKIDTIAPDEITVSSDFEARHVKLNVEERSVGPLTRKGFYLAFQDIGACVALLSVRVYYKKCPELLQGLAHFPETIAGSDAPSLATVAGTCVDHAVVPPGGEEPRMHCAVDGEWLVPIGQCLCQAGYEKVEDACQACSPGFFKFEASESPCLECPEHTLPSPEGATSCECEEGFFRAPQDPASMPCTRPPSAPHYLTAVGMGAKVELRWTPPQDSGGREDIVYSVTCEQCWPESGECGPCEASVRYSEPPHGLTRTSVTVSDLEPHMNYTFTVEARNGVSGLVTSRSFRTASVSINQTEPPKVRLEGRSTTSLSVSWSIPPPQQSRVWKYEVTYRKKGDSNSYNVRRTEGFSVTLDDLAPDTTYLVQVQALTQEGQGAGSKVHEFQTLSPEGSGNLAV
In short: as §1

Molecule | hEphA3-SEAP-: absorbance at 450 nm, percentage with respect to hEphA4-SEAP-His as 100% [1] [%] | SEAP-His: absorbance at 450 nm, percentage with respect to hEphA4-SEAP-His as 100% [2] [%] | hEphB3-SEAP-: absorbance at 450 nm, percentage with respect to hEphA4-SEAP-His as 100% [3] [%] | hEphA8-SEAP-: absorbance at 450 nm, percentage with respect to hEphA4-SEAP-His as 100% [4] [%] | hEphA2-SEAP-: absorbance at 450 nm, percentage with respect to hEphA4-SEAP-His as 100% [5] [%]
86 (antibody, V domains shown, constant regions without entry; synthetic humanized antibody light chain variable region sequence; synthetic humanized antibody heavy chain variable region sequence) VL: DIQMTQSPSSLSASVGDRVTITCRASENIYRNLAWYQQKPGKAPKLLLYAATNLADGVPSRFSGSGSGTDYTLTISSLQSEDFATYYCQHFWGTPWTFGQGTKVEIK VH: QIQLVQSGSELKKPGASVKVSCKASGYTFTDYSMHWVRQAPGQGLKWMGWINTETGEPTYADDFKGRFVFSLDTSVSTAYLQISSLKAEDTAVYYCARIPLYYYGSRYWYFDVWGQGTTVTVSS | 5.8 | 6.1 | 5.9 | 5.7 | 5.7
90 (antibody, V domains shown, constant regions without entry; synthetic humanized antibody light chain variable region sequence; synthetic humanized antibody heavy chain variable region sequence) VL: DIQMTQSPSSLSASVGDRVTITCRASENIYRNLAWYQQKPGKAPQLLLYAATNLADGVPSRFSGSGSGTDYTLTISSLQPEDFATYYCQHFWGTPWTFGQGTKVEIK VH: QVQLVQSGSELKKPGASVKVSCKASGYTFTDYSMHWVRQAPGQGLEWMGWINTETGEPTYADDFKGRFVFSLDTSVSTAYLQISSLKAEDTAVYYCARIPLYYYGSRYWYFDVWGQGTTVTVSS | 5.2 | 5.2 | 5.1 | 5.4 | 5.2
91 (antibody, V domains shown, constant regions without entry; synthetic humanized antibody light chain variable region sequence; synthetic humanized antibody heavy chain variable region sequence) VL: DIQMTQSPSSLSASVGDRVTITCRASENIYRNLAWYQQKPGKAPQLLLYAATNLADGVPSRFSGSGSGTDYTLTISSLQPEDFATYYCQHFWGTPWTFGQGTKVEIK VH: QVQLVQSGSELKKPGASVKVSCKASGYTFTDYSMHWVRQAPGQGLKWMGWINTETGEPTYADDFKGRFVFSLDTSVSTAYLQISSLKAEDTAVYYCARIPLYYYGSRYWYFDVWGQGTTVTVSS | 6.6 | 6.4 | 7.0 | 6.2 | 6.1
87 (antibody, V domains shown, constant regions without entry; synthetic humanized antibody light chain variable region sequence; synthetic humanized antibody heavy chain variable region sequence) VL: DIQMTQSPSSLSASVGDRVTITCRASENIYRNLAWYQQKPGKAPQLLLYAATNLADGVPSRFSGSGSGTDYTLTISSLQPEDFATYYCQHFWGTPWTFGQGTKVEIK VH: QVQLVQSGSELKKPGASVKVSCKASGYTFTDYSMHWVRQAPGQGLEWMGWINTETGEPTYAQGFTGRFVFSLDTSVSTAYLQISSLKAEDTAVYYCARIPLYYYGSRYWYFDVWGQGTTVTVSS | 5.5 | 5.5 | 5.5 | 5.7 | 5.4

Continued, values first:

hEphA3-SEAP-: absorbance at 450 nm, percentage with respect to hEphA4-SEAP-His as 100% [1] [%] | SEAP-His: absorbance at 450 nm, percentage with respect to hEphA4-SEAP-His as 100% [2] [%] | hEphB3-SEAP-: absorbance at 450 nm, percentage with respect to hEphA4-SEAP-His as 100% [3] [%] | hEphA8-SEAP-: absorbance at 450 nm, percentage with respect to hEphA4-SEAP-His as 100% [4] [%] | hEphA2-SEAP-: absorbance at 450 nm, percentage with respect to hEphA4-SEAP-His as 100% [5] [%] | Molecule
5.8 | 5.8 | 5.7 | 5.7 | 5.6 | 89 (antibody, V domains shown, constant regions without entry; synthetic humanized antibody light chain variable region sequence; synthetic humanized antibody heavy chain variable region sequence) VL: DIQMTQSPSSLSASVGDRVTITCRASENIYRNLAWYQQKPGKAPQLLLYAATNLADGVPSRFSGSGSGTDYTLTISSLQPEDFATYYCQHFWGTPWTFGQGTKVEIK VH: QIQLVQSGSELKKPGASVKVSCKASGYTFTDYSMHWVRQAPGQGLKWMGWINTETGEPTYAQGFTGRFVFSLDTSVSTAYLQISSLKAEDTAVYYCARIPLYYYGSRYWYFDVWGQGTTVTVSS
6.0 | 6.1 | 6.3 | 6.2 | 5.8 | 88 (antibody, V domains shown, constant regions without entry; synthetic humanized antibody light chain variable region sequence; synthetic humanized antibody heavy chain variable region sequence) VL: DIQMTQSPSSLSASVGDRVTITCRASENIYRNLAWYQQKPGKAPQLLLYAATNLADGVPSRFSGSGSGTDYTLTISSLQPEDFATYYCQHFWGTPWTFGQGTKVEIK VH: QVQLVQSGSELKKPGASVKVSCKASGYTFTDYSMHWVRQAPGQGLKWMGWINTETGEPTYAQGFTGRFVFSLDTSVSTAYLQISSLKAEDTAVYYCARIPLYYYGSRYWYFDVWGQGTTVTVSS
